Measurements: paper PMC9913818

Columns and labels:
Abl1 SH2 domain [1] = target: Abl1 SH2 domain (UniProt P00519); experiment: SH2 domain microarray probed with fluorescent peptide; settings: reference: unphosphorylated Tyr1510 peptide; sites Y1510
Abl2 SH2 domain [2] = target: Abl2 SH2 domain (UniProt P42684); experiment: as above; settings: reference: unphosphorylated Tyr1510 peptide; sites Y1510
Abl1 SH2 domain [3] = target: Abl1 SH2 domain (UniProt P00519); experiment: GST pull-down from cell lysate; settings: reference: vehicle (DMSO) treated cells; sites Y1510
Abl2 SH2 domain [4] = target: Abl2 SH2 domain (UniProt P42684); experiment: GST pull-down from cell lysate; settings: reference: vehicle (DMSO) treated cells; sites Y1510
Abl1 = Abl1 (UniProt P00519); experiment: co-immunoprecipitation with anti-Abl1; settings: reference: vehicle (DMSO) treated cells; sites Y1510
Abl2 = Abl2 (UniProt P42684); experiment: co-immunoprecipitation with anti-Abl2; settings: reference: vehicle (DMSO) treated cells; sites Y1510
[5] = target: GST-tagged SH2 domain of Abl1 (human) (UniProt P00519); experiment: peptide or protein array; GST-tagged SH2 domains of 124 proteins and GST alone spotted in duplicate on nitrocellulose-coated slides; biotinylated IQGAP1 peptides on streptavidin-Cy3 as probes, 16 h at 4 °C in PBS-Tween with 3% milk and 3% BSA; fluorescence read
[6] = target: GST-tagged SH2 domain of Abl2 (human) (UniProt P42684); experiment: as above
[7] = target: GST-tagged SH2 domain of Abl1 (human) (UniProt P00519); experiment: pull-down; GST-SH2 domains of Abl1 or Abl2, or GST, on glutathione-Sepharose, incubated with H1993 cell lysates for 3 h at 4 °C in Buffer A; cells treated with 100 nM crizotinib or DMSO for 24 h; Western blot for IQGAP1
[8] = target: GST-tagged SH2 domain of Abl2 (human) (UniProt P42684); experiment: as above
[9] = target: endogenous Abl1 (H1993 cells) (human (endogenous in H1993)) (UniProt P00519); experiment: co-IP; endogenous proteins from H1993 cell lysates (Buffer A: 50 mM Tris-HCl pH 7.4, 150 mM NaCl, 1% Triton X-100); IP with anti-MET, anti-IQGAP1, anti-Abl1 or anti-Abl2, controls IgG or non-immune rabbit serum; for the Abl IPs cells also treated with 100 nM crizotinib or DMSO for 24 h
[10] = target: endogenous Abl2 (H1993 cells) (human (endogenous in H1993)) (UniProt P42684); experiment: as above

## IQGAP1 1502-1518 (from UniProt P46940) pTyr1510 peptide
Abl1 SH2 domain [1]
  other: array signal as percent of phosphopeptide signal: gained; reference less than 0.5
Abl2 SH2 domain [2]
  other: array signal as percent of phosphopeptide signal: gained; reference less than 0.5

## IQGAP1 (from UniProt P46940) 100 nM crizotinib (MET inhibitor), 24 h
Abl1 SH2 domain [3]
  other: percent decrease vs vehicle: 82%
Abl2 SH2 domain [4]
  other: percent decrease vs vehicle: 92%
Abl1
  other: percent decrease vs vehicle: 84%
Abl2
  other: percent decrease vs vehicle: 75%

## biotinylated IQGAP1 peptide (amino acids 1502 to 1518) with non-phosphorylated Tyr1510 (from UniProt P46940 1502-1518)
[5]
  percent of the binding of the tyrosine-phosphorylated peptide (array fluorescence): < 0.5%
[6]
  percent of the binding of the tyrosine-phosphorylated peptide (array fluorescence): < 0.5%

## endogenous IQGAP1 (H1993 cells) (from UniProt P46940 1-1657) (natural protein)
[7]
  percent less IQGAP1 pulled down after crizotinib against DMSO: 82%
[8]
  percent less IQGAP1 pulled down after crizotinib against DMSO: 92%
[9]
  percent decrease of co-immunoprecipitated IQGAP1 after crizotinib against DMSO: 84%
[10]
  percent decrease of co-immunoprecipitated IQGAP1 after crizotinib against DMSO: 75%
